The nature of series [1]: Activatability of hGCase mutants by phosphatidylserine. Particulars: 25 nM protein; for phosphatidylserine activation, fold increase of initial activity: 4 μM phosphatidylserine, 10 min pre-incubation at RT. Type of series: biochemical. The procedure:
Negatively charged lipids as phosphatidylserine are known to stabilize and activate the enzyme usually in combination with Saposin C (SAP-2), since GCase is naturally interacting with the membrane of the lysosomes in vivo. For the assay, 25 nM protein and 4 μM phosphatidylserine (Avanti; 10 mM stock solution dissolved in chloroform) were tested.
After adding the lipid to the enzyme, the solution was pre-incubated for 10 min at RT before adding the substrate and initializing the enzymatic reaction. The hGCase activity without added phosphatidylserine was set to 100% relative enzyme activity. The increase in activity was expressed as X-fold the initial activity without activator.
Several physiological substances have been reported to stimulate the activity of glucocerebrosidase. GCase is naturally interacting with the membrane of the lysosomes in vivo, thus negatively charged lipids such as phosphatidylserine are known to stabilize and activate the enzyme alone or in combination with Saposin C (SAP-2) (Qi & Grabowski, 1998; Sun et al., 2002; Vaccaro et al., 1995). Thus, it is essential to preserve these properties when modifying the GCase enzyme structure. To this end, the effect of phosphatidylserine alone was evaluated as first approach. The activity levels with and without added phosphatidylserine are plotted in FIG. 6.
By translating the data into fold increase of the initial activity, a more conclusive statement can be drawn (FIG. 7).

Series [2] is described as follows: pH screening of hGCase variants (activity assay, pH 3.5-8). As to conditions: for relative activity: pH 3.5, 20 mM citric acid buffer, highest activity = 100%; for pH optimum: pH range 3.5-8, 75 nM protein, 100% relative activity. Type of series: biochemical. The procedure:
For all further GCase characterization experiments including the activity assay, 20 μM substrate concentration, 30-40 min incubation time and protein concentrations ranging from 25-100 nM were set as final assay settings to ensure measurements in the linear range. The overall DMSO concentration within the assay was kept at 0.5% (v/v) or even below, since DMSO influences the fluorescent signal with higher concentrations (experimentally tested, data not shown; confirmed by (Urban et al., 2008). Therefore, GCase activity buffer+1% (v/v) DMSO was also used for dilutions (table 2.9). The plate reader SpectraMax i3 (Molecular Devices) including the analysis software SoftMax Pro 6.4 was used for all activity measurements within this work. The program settings were kept the same for all activity runs: kinetic run, measurement temperature: 37° C., PMT Gain: high; flashes per read: 6; read height: 0.73305 mm from plate.
A pH optimum screening was done to observe a possible shift in the pH spectrum of the new variants due to structural modification of the enzymes. Therefore, three different buffers were used, covering a pH range of pH 3.5 to 8. For the screening, buffer substances were chosen after the use for purification buffers. Therefore, following buffers were prepared: Citric acid buffer (20 mM, pH 3.5-5), MES buffer (20 mM, pH 6-6.5) and HEPES buffer (20 mM, pH 7-8). The final protein concentration used for this assay was 75 nM. The activity assay was done as described in section 2.3.5 (table 2.11), merely the buffer was varied.
A possible pH optimum shift due to structural modifications should be examined. Since the GCase enzyme originally occurs within the lysosome, its natural pH optimum is reported to be between pH 4.7-6.0 (Lieberman et al., 2007; Liou et al., 2006; Tan et al., 2014). This could change when including slight modifications in the structure of the molecule. Thus, the mutants were tested within a pH range of 3.5 to 8 for enzymatic activity.

Series [3] concerns H4 glioblastoma GBA-KO cells. Briefly: Reduction of natural substrate GlcSph in H4 GBA-KO cells (LC/MS). Type of series: cell-based, human. Particulars: 10 nM treatment, 48 h, vs untreated H4 GBA-KO cells. As for the experimental part: FIG. 9: Reduction of the natural substrate GlcSph after treatment of H4 glioblastoma GBA-KO cells with hGCase molecules. Treatment concentration (hGCase protein): 1, 10 and 100 nM, respectively. Analysis of substrate levels after 48 h of incubation via LC/MS. H4 wt cells (GCase levels normalized to 100%) and H4 GBA-KO cells (loss of GBA gene) served as control. ^1 measured glucosylsphingosine (GlcSph) levels normalized to total protein amount. ^2 H4 glioblastoma cells with knock-out GBA gene.
Human H4 glioblastoma cells (H4 cells) were taken as human neuronal model to test purified hGCase variants in a cell-based setup. H4 wild-type cells and untreated H4 GBA-KO cells (knock-out of related GCase GBA gene) were taken as references. After seeding (40000 cells/well) and incubating them for ˜24 h, the GBA-KO cells were treated with 1, 10 and 100 nM of target protein sample and incubated for either 2 h (for uptake and GCase activity measurements) or 48 h (for substrate reduction measurements) at 37° C. with 5% CO2 and constant humidity. After cell-lysis (GCase activity buffer (table 2.6)+0.1% (w/v) Triton X-100+phosphatase (Phospho stop Roche in-house)+protease inhibitor (cOmplete EDTA-free)), the uptake of the enzymes into the cells was evaluated by measuring the hGCase concentration via AlphaLISA (section 2.3.6) as well as the activity after the uptake (section 2.3.5). Samples for substrate reduction determination were hand over to Iris Ruf (SMR, see section 2.7). Due to the loss of the GCase related GBA gene in H4 GBA-KO cells, the natural substrate glucosylsphingosine (GlcSph) accumulates. The reduction of GlcSph levels due to hGCase treatment was evaluated via LC/MS by Iris Ruf (SMR).
Finally, the cellular uptake, activity and substrate reduction in human neuronal cells were determined to test the mutants' efficacy in a more cellular context. In this work, human H4 glioblastoma wild-type cells (wt) and H4 GBA-KO cells (knock-out of GCase related GBA gene) were used as a Gaucher cell model. H4 GBA-KO cells, which accumulate the natural substrate glucosylsphingosine (GlcSph) due to the loss of the GBA gene, were treated with 1, 10 and 100 nM of hGCase molecules, respectively. Activity and protein concentration (via AlphaLISA) were measured after two hours of incubation after several media wash steps. The reduction of natural substrate GlcSph was analyzed 48 h after cell treatment via LC/MS. The activity measured after uptake into the cells normalized to measured hGCase protein levels is graphed in FIG. 8. The evaluated activities are given as percentage of hGCase activity measured in wt H4 cells, set to 100%.
To determine the enzymes' efficacies, the reduction of accumulated glucosylsphingosine (GlcSph) in H4 GBA-KO cells was investigated.

B1: R495HS2: hGCase based on the Cerezyme sequence (R495H) but produced in S2 cells, His8-tagged; Seq. Id. No. 1 (protein, listed as Homo sapiens)
chain: ARPCIPKSFGYSSVVCVCNATYCDSFDPPTFPALGTFSRYESTRSGRRMELSMGPIQANHTGTGLLLTLQPEQKFQKVKGFGGAMTDAAALNILALSPPAQNLLLKSYFSEEGIGYNIIRVPMASCDFSIRTYTYADTPDDFQLHNFSLPEEDTKLKIPLIHRALQLAQRPVSLLASPWTSPTWLKTNGAVNGKGSLKGQPGDIYHQTWARYFVKFLDAYAEHKLQFWAVTAENEPSAGLLSGYPFQCLGFTPEHQRDFIARDLGPTLANSTHHNVRLLMLDDQRLLLPHWAKVVLTDPEAAKYVHGIAVHWYLDFLAPAKATLGETHRLFPNTMLFASEACVGSKFWEQSVRLGSWDRGMQYSHSIITNLLYHVVGWTDWNLALNPEGGPNWVRNFVDSPIIVDITKDTFYKQPMFYHLGHFSKFIPEGSQRVGLVASQKNDLDAVALMHPDGSAVVVVLNRSSKDVPLTIKDPAVGFLETISPGYSIHTYLWHRQ
modifications: His8 tag
Consider B1, for which, in series [1], the “phosphatidylserine activation, fold increase of initial activity” value is 4.9 fold. The relative activity in series [2] is 80%. Besides, in series [3], the “reduction in GlcSph levels (%)” value was around 75% and the “reduction in GlcSph levels (fold)” value was found to be 4 fold.

B2: L34Q: recombinant human β-glucocerebrosidase variant R495H/L34Q, S2 cells; Seq. Id. No. 6 (protein, listed as Homo sapiens)
chain: ARPCIPKSFGYSSVVCVCNATYCDSFDPPTFPAQGTFSRYESTRSGRRMELSMGPIQANHTGTGLLLTLQPEQKFQKVKGFGGAMTDAAALNILALSPPAQNLLLKSYFSEEGIGYNIIRVPMASCDFSIRTYTYADTPDDFQLHNFSLPEEDTKLKIPLIHRALQLAQRPVSLLASPWTSPTWLKTNGAVNGKGSLKGQPGDIYHQTWARYFVKFLDAYAEHKLQFWAVTAENEPSAGLLSGYPFQCLGFTPEHQRDFIARDLGPTLANSTHHNVRLLMLDDQRLLLPHWAKVVLTDPEAAKYVHGIAVHWYLDFLAPAKATLGETHRLFPNTMLFASEACVGSKFWEQSVRLGSWDRGMQYSHSIITNLLYHVVGWTDWNLALNPEGGPNWVRNFVDSPIIVDITKDTFYKQPMFYHLGHFSKFIPEGSQRVGLVASQKNDLDAVALMHPDGSAVVVVLNRSSKDVPLTIKDPAVGFLETISPGYSIHTYLWHRQ
notes: recombinant human β-glucocerebrosidase variant R495H/L34Q, S2 cells; Id; No. 6
On to B2, for which, in series [2], the relative activity is recorded as around 80% and the pH optimum came out at 6 pH.

B3: K321N/H145L: Amicus double mutant hGCase R495H/K321N/H145L produced in S2 cells; Seq. Id. No. 3 (protein, listed as Homo sapiens)
chain: ARPCIPKSFGYSSVVCVCNATYCDSFDPPTFPALGTFSRYESTRSGRRMELSMGPIQANHTGTGLLLTLQPEQKFQKVKGFGGAMTDAAALNILALSPPAQNLLLKSYFSEEGIGYNIIRVPMASCDFSIRTYTYADTPDDFQLLNFSLPEEDTKLKIPLIHRALQLAQRPVSLLASPWTSPTWLKTNGAVNGKGSLKGQPGDIYHQTWARYFVKFLDAYAEHKLQFWAVTAENEPSAGLLSGYPFQCLGFTPEHQRDFIARDLGPTLANSTHHNVRLLMLDDQRLLLPHWAKVVLTDPEAAKYVHGIAVHWYLDFLAPANATLGETHRLFPNTMLFASEACVGSKFWEQSVRLGSWDRGMQYSHSIITNLLYHVVGWTDWNLALNPEGGPNWVRNFVDSPIIVDITKDTFYKQPMFYHLGHFSKFIPEGSQRVGLVASQKNDLDAVALMHPDGSAVVVVLNRSSKDVPLTIKDPAVGFLETISPGYSIHTYLWHRQ
notes: Amicus double mutant hGCase R495H/K321N/H145L produced in S2 cells; Id; No. 3
As for B3, the “phosphatidylserine activation, fold increase of initial activity” value in series [1] is recorded as around 2.8 fold. Further, in series [2] (pH 3.5-8), the “shape of pH spectrum” value is on record as “more bell-shaped pH spectrum”.

B4: F31Y: recombinant human β-glucocerebrosidase variant R495H/F31Y, S2 cells; Seq. Id. No. 5 (protein, listed as Homo sapiens)
chain: ARPCIPKSFGYSSVVCVCNATYCDSFDPPTYPALGTFSRYESTRSGRRMELSMGPIQANHTGTGLLLTLQPEQKFQKVKGFGGAMTDAAALNILALSPPAQNLLLKSYFSEEGIGYNIIRVPMASCDFSIRTYTYADTPDDFQLHNFSLPEEDTKLKIPLIHRALQLAQRPVSLLASPWTSPTWLKTNGAVNGKGSLKGQPGDIYHQTWARYFVKFLDAYAEHKLQFWAVTAENEPSAGLLSGYPFQCLGFTPEHQRDFIARDLGPTLANSTHHNVRLLMLDDQRLLLPHWAKVVLTDPEAAKYVHGIAVHWYLDFLAPAKATLGETHRLFPNTMLFASEACVGSKFWEQSVRLGSWDRGMQYSHSIITNLLYHVVGWTDWNLALNPEGGPNWVRNFVDSPIIVDITKDTFYKQPMFYHLGHFSKFIPEGSQRVGLVASQKNDLDAVALMHPDGSAVVVVLNRSSKDVPLTIKDPAVGFLETISPGYSIHTYLWHRQ
notes: recombinant human β-glucocerebrosidase variant R495H/F31Y, S2 cells; Id; No. 5
Take B4: in series [2], the relative activity is listed as around 80% and the pH optimum was determined as 6 pH.

B5: I5N: recombinant human β-glucocerebrosidase variant R495H/I5N, S2 cells; Seq. Id. No. 4 (protein, listed as Homo sapiens)
chain: ARPCNPKSFGYSSVVCVCNATYCDSFDPPTFPALGTFSRYESTRSGRRMELSMGPIQANHTGTGLLLTLQPEQKFQKVKGFGGAMTDAAALNILALSPPAQNLLLKSYFSEEGIGYNIIRVPMASCDFSIRTYTYADTPDDFQLHNFSLPEEDTKLKIPLIHRALQLAQRPVSLLASPWTSPTWLKTNGAVNGKGSLKGQPGDIYHQTWARYFVKFLDAYAEHKLQFWAVTAENEPSAGLLSGYPFQCLGFTPEHQRDFIARDLGPTLANSTHHNVRLLMLDDQRLLLPHWAKVVLTDPEAAKYVHGIAVHWYLDFLAPAKATLGETHRLFPNTMLFASEACVGSKFWEQSVRLGSWDRGMQYSHSIITNLLYHVVGWTDWNLALNPEGGPNWVRNFVDSPIIVDITKDTFYKQPMFYHLGHFSKFIPEGSQRVGLVASQKNDLDAVALMHPDGSAVVVVLNRSSKDVPLTIKDPAVGFLETISPGYSIHTYLWHRQ
notes: recombinant human β-glucocerebrosidase variant R495H/I5N, S2 cells; Id; No. 4
As to B5, the “basal activity level (no added lipid)” value in series [1] (no phosphatidylserine) is reported as “least basal activity level”. For the same molecule, the “phosphatidylserine activation, fold increase of initial activity” value in series [1] stood at 7.5 fold. In series [2], this molecule came in with a relative activity of 75%. The “activity at pH 8” value in series [2] (pH 8, 20 mM HEPES buffer) is “completely inactive”. Further, in series [3], the “reduction in GlcSph levels (%)” value was around 75% and the “reduction in GlcSph levels (fold)” value was found to be 4 fold.

(Values after patent US20220325265A1, “GLUCOCEREBROSIDASE MUTANTS” (Hoffmann-la Roche Inc., priority 2019, published 2022).)
